Data on 5 substances can be found in paper PMC6508891.

As usually defined, the Kd is the free concentration of one partner at which half of the binding sites on the other are occupied at equilibrium, for simple one-to-one binding.

Some results are limits rather than exact numbers.

Test [1] has as its target purified human complement component C3 (human) (UniProt P01024). Kind of test: SPR; BIAcore 3000; C3 or C4 amine-coupled to CM5; VWF A1A2A3 or single A domain perfused at 0-2.0 μM; 10 mM HEPES, 150 mM NaCl, 0.005% Tween-20, pH 7.4, 25°C, 10 µL/min; 1:1 Langmuir and shift baseline models.
In test [2] the target is purified human complement component C4 (human). The description is as above.
Test [3] has as its target recombinant human VWF A1 domain with His tag (human). The test can be described thus: SPR; BIAcore 3000; VWF A1A2A3 or single A domain amine-coupled to CM5; C3 or C4 perfused at 0-2.0 μM; 10 mM HEPES, 150 mM NaCl, 0.005% Tween-20, pH 7.4, 25°C, 10 µL/min; 1:1 Langmuir and shift baseline models. (Surface plasmon resonance follows binding to a sensor surface in real time, without labels.)

Test [4] addresses recombinant human VWF A1A2A3 triple domain with His tag (human). The description is as above.
Test [5] deals with recombinant human VWF A3 domain with His tag (human). The test is described as above.

Take “recombinant human VWF A3 domain with His tag (domain or fragment)”: the results for the Kd in test [1] and in test [2] were 100 nM and over 2000 nM, respectively.
In the same order, the values of “recombinant human VWF A1 domain with His tag (domain or fragment)” are over 2000 nM and 504 nM.
As to “purified human complement component C3 (from UniProt P01024 23-667; P01024 672-1663) (natural protein)”, the Kd was 252 nM in test [3], 661 nM in test [4] and 137 nM in test [5].
In the same order, the values of “purified human complement component C4 (natural protein)” are 139 nM, over 2000 nM and over 2000 nM.
Turning to “recombinant human VWF A1A2A3 triple domain with His tag (domain or fragment)”, the Kd in test [1] amounted to 232 nM; in test [2] it was 523 nM.
